Data: publication PMC10853780

What was measured:
[1] = target: HA-tagged DAXX (Y124A) (human) (UniProt Q9UER7); test: co-IP; anti-HA magnetic beads (Pierce HA-Tag Magnetic IP/Co-IP Kit) on SF188 cell extracts (500 μg protein), 4 h at 4°C, 50 μg/ml ethidium bromide throughout, final wash with 200 mM NaCl; immunoblot for DAXX and ATRX
[2] = target: HA-tagged DAXX (Y124A, R371W) (UniProt Q9UER7); test: co-IP; as the DAXX-ATRX co-IP (anti-HA magnetic beads on SF188 cell extracts, ethidium bromide), proteins separated on a 16% acrylamide gel; immunoblot for DAXX, H3.3 and H4

| Substance | percent reduction of the interaction against DAXX WT [1] | percent decrease of the interaction, corrected for the reduced stability of the mutant [2] |
| --- | --- | --- |
| alpha-thalassemia/mental retardation syndrome X-linked (ATRX), P46100 1-2492 | > 95% |  |
| H3.3-H4 heterodimer |  | its interaction with H3.3 and H4 was decreased by > 80% |
